According to the supplement of paper PMC9876800:

Test system: peptide library, one residue held at a place counted from the S/T acceptor
Test: relative phosphorylation of the sub-library (ratio to the mean residue at this position); higher = residue favoured
In short: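 Relative sub-library phosphorylation is the ratio of each sub-library's signal to the mean residue at that position. The signal came from phosphorimaging of spots on streptavidin membranes, quantified by densitometry, after purified recombinant kinases reacted with biotinylated degenerate peptide sub-libraries in 384-well plates. Reactions held 50 μM peptide and 50 μM ATP spiked with γ-32P-ATP for 90 min under kinase-specific conditions.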

Chain of WNK1, construct: aa171-529, human (Q9H4A3 171-529, looked up): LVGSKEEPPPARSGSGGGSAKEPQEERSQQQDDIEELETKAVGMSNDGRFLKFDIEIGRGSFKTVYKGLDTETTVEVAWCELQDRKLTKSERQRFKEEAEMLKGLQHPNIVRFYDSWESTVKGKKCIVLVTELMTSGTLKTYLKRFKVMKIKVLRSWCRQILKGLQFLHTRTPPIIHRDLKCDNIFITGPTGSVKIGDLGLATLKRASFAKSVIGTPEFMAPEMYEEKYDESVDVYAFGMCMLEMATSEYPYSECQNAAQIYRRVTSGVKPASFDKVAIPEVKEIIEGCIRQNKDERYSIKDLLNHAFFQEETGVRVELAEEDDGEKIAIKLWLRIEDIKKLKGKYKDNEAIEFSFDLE
Chain of MAP3K21, construct: aa98-451, human (Q5TCX8 98-451, looked up): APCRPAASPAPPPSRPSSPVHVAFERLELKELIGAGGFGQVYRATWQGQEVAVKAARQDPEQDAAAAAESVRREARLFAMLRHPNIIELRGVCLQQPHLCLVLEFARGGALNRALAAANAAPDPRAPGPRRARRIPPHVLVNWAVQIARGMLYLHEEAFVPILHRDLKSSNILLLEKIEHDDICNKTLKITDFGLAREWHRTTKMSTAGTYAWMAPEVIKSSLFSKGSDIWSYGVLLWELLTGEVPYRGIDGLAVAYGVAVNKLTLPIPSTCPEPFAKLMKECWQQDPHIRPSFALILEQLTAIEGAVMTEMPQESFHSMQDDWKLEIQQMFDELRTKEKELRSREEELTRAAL
Chain of EEF2K, construct: Full length, human (O00418 whole entry, looked up): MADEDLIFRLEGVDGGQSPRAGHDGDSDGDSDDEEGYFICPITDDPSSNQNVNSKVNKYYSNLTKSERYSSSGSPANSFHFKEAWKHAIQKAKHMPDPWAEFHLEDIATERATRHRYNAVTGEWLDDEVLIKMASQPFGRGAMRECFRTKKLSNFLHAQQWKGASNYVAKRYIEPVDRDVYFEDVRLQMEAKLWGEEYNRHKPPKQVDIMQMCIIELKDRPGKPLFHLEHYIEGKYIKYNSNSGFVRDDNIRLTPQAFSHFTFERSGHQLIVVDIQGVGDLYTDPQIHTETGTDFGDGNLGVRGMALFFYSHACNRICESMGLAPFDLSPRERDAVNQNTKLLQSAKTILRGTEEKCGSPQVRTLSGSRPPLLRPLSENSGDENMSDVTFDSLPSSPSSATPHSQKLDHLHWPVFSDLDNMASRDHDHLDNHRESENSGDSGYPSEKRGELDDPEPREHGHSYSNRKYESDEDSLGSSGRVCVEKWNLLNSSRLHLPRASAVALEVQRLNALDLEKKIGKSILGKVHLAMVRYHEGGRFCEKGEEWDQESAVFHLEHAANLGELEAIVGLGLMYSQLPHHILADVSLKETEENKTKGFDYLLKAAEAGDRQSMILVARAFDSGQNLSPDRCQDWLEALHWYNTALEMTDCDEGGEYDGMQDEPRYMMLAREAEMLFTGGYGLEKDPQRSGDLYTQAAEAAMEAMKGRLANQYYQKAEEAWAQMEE

MAP3K21, construct: aa98-451, human (from UniProt Q5TCX8)
relative phosphorylation
Conditions	at +1	at +2	at +3	at +4	at -1	at -2	at -3	at -4	at -5
A fixed	0.66	0.456	0.721	0.893	0.777	0.912	0.933	1.05	1.07
D fixed	0.244	0.223	0.462	0.682	1.23	1.55	1.72	1.84	1.8
E fixed	0.435	0.323	0.508	0.676	0.821	1.43	1.97	1.81	1.63
F fixed	1.52	0.38	1.08	0.633	0.875	1.02	0.789	0.676	0.82
G fixed	0.585	0.397	0.796	1.11	0.386	0.992	1.17	1.37	1.24
H fixed	1.21	2.1	1.61	1.16	1.46	1.19	1.19	1.12	1.06
I fixed	1.28	0.502	0.71	0.622	0.534	0.537	0.406	0.49	0.485
K fixed	1.25	2.23	1.52	2.18	1.03	0.356	0.702	0.83	1.03
L fixed	0.726	0.507	1.14	0.58	0.711	0.699	0.545	0.513	0.609
M fixed	1.61	0.467	0.881	0.722	0.914	1.04	0.806	0.818	0.654
N fixed	0.62	0.624	0.829	0.871	1.43	1.18	1.22	1.16	1.01
P fixed	0.185	0.18	0.398	1.46	0.679	1.85	1.19	1.19	1.08
Q fixed	1.16	0.88	0.849	1.16	1.02	1.05	1.16	0.968	0.99
R fixed	1.92	3.75	1.87	2.13	1.4	0.593	0.817	0.902	1.13
V fixed	1.98	0.426	0.81	0.753	0.875	0.52	0.496	0.595	0.682
W fixed	0.707	1.91	1.41	0.702	1.19	0.909	0.872	0.886	0.825
Y fixed	0.907	1.65	1.41	0.661	1.67	1.18	1.02	0.779	0.886
pThr fixed	1.13	0.418	0.664	0.851	0.803	1.09	1.84	1.28	1.35
pTyr fixed	0.604	0.427	0.692	0.519	1.83	1.01	1.17	1.11	1.22

EEF2K, construct: Full length, human (from UniProt O00418)
relative phosphorylation
Conditions	at +1	at +2	at +3	at +4	at -1	at -2	at -3	at -4	at -5
A fixed	1.46	0.748	0.733	0.852	1.3	1.1	0.971	1.01	1.08
D fixed	0.421	0.233	0.609	0.742	1.24	1.24	1.14	0.912	0.748
E fixed	1.5	0.236	0.618	0.644	1.25	1.91	1.13	0.794	0.718
F fixed	0.935	1.16	0.583	0.718	0.881	0.935	0.971	1.61	1.17
G fixed	0.447	0.773	0.679	1.08	1.14	1.13	1.32	1.18	1.07
H fixed	0.864	1.31	0.766	1.28	1.08	0.929	0.971	0.878	0.873
I fixed	1.4	0.647	0.417	0.651	0.598	0.739	0.945	0.932	1.02
K fixed	0.992	2.31	3.25	2.03	0.978	0.631	0.975	1.11	1.24
L fixed	1.09	0.565	0.477	0.643	0.93	0.751	0.975	1.04	0.892
M fixed	1.13	0.909	0.504	0.799	1.05	0.848	0.978	1.17	1.1
N fixed	0.551	0.695	0.918	1.08	1.04	0.655	1.09	0.901	0.975
P fixed	0.253	0.361	0.337	0.96	0.96	1.57	1.08	0.889	1.03
Q fixed	1.33	0.965	0.88	1.07	0.983	1.06	0.893	0.809	0.847
R fixed	1.04	3.13	4.55	1.91	1.14	0.821	1.04	1.08	1.18
V fixed	1.72	0.776	0.537	0.665	0.567	0.833	0.848	0.876	0.993
W fixed	0.885	0.684	0.563	1.1	0.806	0.921	0.79	0.869	1.06
Y fixed	0.989	1.49	0.581	0.762	1.06	0.918	0.886	0.939	1.02
pThr fixed	0.777	0.601	0.648	1.05	0.619	0.91	1.27	0.982	1.29
pTyr fixed	1.85	0.381	0.882	0.738	1	2.03	1.3	0.754	1.47

PRKCH, construct: Full length, human (from UniProt P24723)
relative phosphorylation
Conditions	at +1	at +2	at +3	at +4	at -1	at -2	at -3	at -4	at -5
A fixed	0.536	0.49	0.738	0.933	1.07	0.893	0.78	1.1	1.19
D fixed	0.187	0.163	0.449	0.528	0.548	0.496	0.423	0.718	0.638
E fixed	0.282	0.15	0.547	0.496	0.55	0.467	0.469	0.799	0.721
F fixed	1.78	0.68	0.858	0.658	0.632	0.721	0.813	0.773	1.23
G fixed	0.374	0.299	1.06	0.926	1.42	1.13	0.776	1.12	0.955
H fixed	0.661	1.39	1.28	1.45	0.981	1.24	1.39	1.15	1.12
I fixed	1.47	0.622	0.754	0.632	0.397	0.405	0.444	0.614	0.818
K fixed	1.86	3.28	2.09	2.44	1.98	1.9	1.88	1.72	1.53
L fixed	1.19	0.561	0.883	0.64	0.733	0.438	0.551	0.66	0.852
M fixed	1.43	0.745	0.785	0.708	0.929	0.592	0.695	0.869	0.722
N fixed	0.548	0.668	0.974	1.04	1.36	1.32	0.995	1.06	0.97
P fixed	0.286	0.212	0.554	1.11	1.11	0.736	0.821	1.05	0.798
Q fixed	1.12	0.583	0.839	0.986	0.999	1.28	0.842	0.927	0.878
R fixed	2.06	4.08	2.24	1.99	2.16	3.2	4.05	1.67	1.75
V fixed	1.31	0.596	0.754	0.715	0.593	0.447	0.466	0.716	0.847
W fixed	0.831	0.669	1.05	1	0.61	1.02	0.786	1.18	1.12
Y fixed	1.07	1.81	1.16	0.753	0.94	0.696	0.824	0.878	0.857
pThr fixed	0.833	0.36	0.641	0.773	0.411	0.691	0.644	0.881	0.699
pTyr fixed	0.574	0.268	0.811	0.593	0.751	0.641	0.847	0.869	1.09

WNK1, construct: aa171-529, human (from UniProt Q9H4A3)
relative phosphorylation
Conditions	at +1	at +2	at +3	at +4	at -1	at -2	at -3	at -4	at -5
A fixed	0.732	1.03	0.811	0.927	1.25	1.57	0.952	1.02	0.944
D fixed	0.238	1.07	0.679	0.746	0.328	0.241	0.314	0.487	0.493
E fixed	0.257	0.75	0.619	0.759	0.445	0.263	0.371	0.536	0.53
F fixed	1.18	0.759	1.52	1.24	0.802	0.764	0.799	0.86	1.12
G fixed	0.84	0.934	0.828	0.839	1.1	2.18	0.926	0.88	0.867
H fixed	0.762	0.794	1.17	0.888	0.887	1.31	0.979	1	0.932
I fixed	1.17	1.24	0.89	1.13	0.75	0.748	0.85	0.951	0.955
K fixed	1.22	1.19	1.43	1.5	2.19	1.44	2.48	2.01	1.82
L fixed	1.34	0.984	0.958	1.02	0.891	0.641	0.951	1.02	1.22
M fixed	1.82	0.899	0.954	0.952	1.07	0.597	0.855	0.952	0.974
N fixed	0.895	0.665	0.783	0.719	0.719	0.714	0.606	0.872	0.712
P fixed	0.288	0.457	0.582	0.936	0.586	1.25	1.01	0.763	0.819
Q fixed	1.18	0.65	0.734	0.861	1.21	0.954	0.845	0.795	0.698
R fixed	2.01	2.97	1.69	1.37	2.5	2.25	2.63	1.83	1.54
V fixed	0.986	1.21	0.809	0.992	0.971	0.957	0.961	1.06	1.12
W fixed	0.888	0.635	1.23	1.08	0.574	0.462	0.621	0.856	1.11
Y fixed	1.18	0.759	1.31	1.03	0.735	0.669	0.858	1.1	1.15
pThr fixed	0.58	0.863	0.707	0.803	0.61	0.852	0.854	0.882	0.702
pTyr fixed	0.662	0.911	0.849	0.78	0.789	0.573	0.806	0.666	0.637
